Laboratory results: article PMC11027885, “Utilizing surface plasmon resonance as a novel method for monitoring in-vitro P-glycoprotein efflux” (Frontiers in biophysics, 2024)

System: CCC(=O)C(CC(C)N(C)C)(c1ccccc1)c1ccccc1
Assay: purified protein, by the assay type
Conditions: other: 50 nM Pgp in liposomes; curve fit

mouse Pgp (Abcb1a, MDR3) (Mus musculus)
Km: 28 ± 10 µM
